Target: mouse megalin (mouse, UniProt A2ARV4 26-4660)
Assay: cell-based or functional assay

mouse megalin, sequence (A2ARV4 26-4660 limits assumed): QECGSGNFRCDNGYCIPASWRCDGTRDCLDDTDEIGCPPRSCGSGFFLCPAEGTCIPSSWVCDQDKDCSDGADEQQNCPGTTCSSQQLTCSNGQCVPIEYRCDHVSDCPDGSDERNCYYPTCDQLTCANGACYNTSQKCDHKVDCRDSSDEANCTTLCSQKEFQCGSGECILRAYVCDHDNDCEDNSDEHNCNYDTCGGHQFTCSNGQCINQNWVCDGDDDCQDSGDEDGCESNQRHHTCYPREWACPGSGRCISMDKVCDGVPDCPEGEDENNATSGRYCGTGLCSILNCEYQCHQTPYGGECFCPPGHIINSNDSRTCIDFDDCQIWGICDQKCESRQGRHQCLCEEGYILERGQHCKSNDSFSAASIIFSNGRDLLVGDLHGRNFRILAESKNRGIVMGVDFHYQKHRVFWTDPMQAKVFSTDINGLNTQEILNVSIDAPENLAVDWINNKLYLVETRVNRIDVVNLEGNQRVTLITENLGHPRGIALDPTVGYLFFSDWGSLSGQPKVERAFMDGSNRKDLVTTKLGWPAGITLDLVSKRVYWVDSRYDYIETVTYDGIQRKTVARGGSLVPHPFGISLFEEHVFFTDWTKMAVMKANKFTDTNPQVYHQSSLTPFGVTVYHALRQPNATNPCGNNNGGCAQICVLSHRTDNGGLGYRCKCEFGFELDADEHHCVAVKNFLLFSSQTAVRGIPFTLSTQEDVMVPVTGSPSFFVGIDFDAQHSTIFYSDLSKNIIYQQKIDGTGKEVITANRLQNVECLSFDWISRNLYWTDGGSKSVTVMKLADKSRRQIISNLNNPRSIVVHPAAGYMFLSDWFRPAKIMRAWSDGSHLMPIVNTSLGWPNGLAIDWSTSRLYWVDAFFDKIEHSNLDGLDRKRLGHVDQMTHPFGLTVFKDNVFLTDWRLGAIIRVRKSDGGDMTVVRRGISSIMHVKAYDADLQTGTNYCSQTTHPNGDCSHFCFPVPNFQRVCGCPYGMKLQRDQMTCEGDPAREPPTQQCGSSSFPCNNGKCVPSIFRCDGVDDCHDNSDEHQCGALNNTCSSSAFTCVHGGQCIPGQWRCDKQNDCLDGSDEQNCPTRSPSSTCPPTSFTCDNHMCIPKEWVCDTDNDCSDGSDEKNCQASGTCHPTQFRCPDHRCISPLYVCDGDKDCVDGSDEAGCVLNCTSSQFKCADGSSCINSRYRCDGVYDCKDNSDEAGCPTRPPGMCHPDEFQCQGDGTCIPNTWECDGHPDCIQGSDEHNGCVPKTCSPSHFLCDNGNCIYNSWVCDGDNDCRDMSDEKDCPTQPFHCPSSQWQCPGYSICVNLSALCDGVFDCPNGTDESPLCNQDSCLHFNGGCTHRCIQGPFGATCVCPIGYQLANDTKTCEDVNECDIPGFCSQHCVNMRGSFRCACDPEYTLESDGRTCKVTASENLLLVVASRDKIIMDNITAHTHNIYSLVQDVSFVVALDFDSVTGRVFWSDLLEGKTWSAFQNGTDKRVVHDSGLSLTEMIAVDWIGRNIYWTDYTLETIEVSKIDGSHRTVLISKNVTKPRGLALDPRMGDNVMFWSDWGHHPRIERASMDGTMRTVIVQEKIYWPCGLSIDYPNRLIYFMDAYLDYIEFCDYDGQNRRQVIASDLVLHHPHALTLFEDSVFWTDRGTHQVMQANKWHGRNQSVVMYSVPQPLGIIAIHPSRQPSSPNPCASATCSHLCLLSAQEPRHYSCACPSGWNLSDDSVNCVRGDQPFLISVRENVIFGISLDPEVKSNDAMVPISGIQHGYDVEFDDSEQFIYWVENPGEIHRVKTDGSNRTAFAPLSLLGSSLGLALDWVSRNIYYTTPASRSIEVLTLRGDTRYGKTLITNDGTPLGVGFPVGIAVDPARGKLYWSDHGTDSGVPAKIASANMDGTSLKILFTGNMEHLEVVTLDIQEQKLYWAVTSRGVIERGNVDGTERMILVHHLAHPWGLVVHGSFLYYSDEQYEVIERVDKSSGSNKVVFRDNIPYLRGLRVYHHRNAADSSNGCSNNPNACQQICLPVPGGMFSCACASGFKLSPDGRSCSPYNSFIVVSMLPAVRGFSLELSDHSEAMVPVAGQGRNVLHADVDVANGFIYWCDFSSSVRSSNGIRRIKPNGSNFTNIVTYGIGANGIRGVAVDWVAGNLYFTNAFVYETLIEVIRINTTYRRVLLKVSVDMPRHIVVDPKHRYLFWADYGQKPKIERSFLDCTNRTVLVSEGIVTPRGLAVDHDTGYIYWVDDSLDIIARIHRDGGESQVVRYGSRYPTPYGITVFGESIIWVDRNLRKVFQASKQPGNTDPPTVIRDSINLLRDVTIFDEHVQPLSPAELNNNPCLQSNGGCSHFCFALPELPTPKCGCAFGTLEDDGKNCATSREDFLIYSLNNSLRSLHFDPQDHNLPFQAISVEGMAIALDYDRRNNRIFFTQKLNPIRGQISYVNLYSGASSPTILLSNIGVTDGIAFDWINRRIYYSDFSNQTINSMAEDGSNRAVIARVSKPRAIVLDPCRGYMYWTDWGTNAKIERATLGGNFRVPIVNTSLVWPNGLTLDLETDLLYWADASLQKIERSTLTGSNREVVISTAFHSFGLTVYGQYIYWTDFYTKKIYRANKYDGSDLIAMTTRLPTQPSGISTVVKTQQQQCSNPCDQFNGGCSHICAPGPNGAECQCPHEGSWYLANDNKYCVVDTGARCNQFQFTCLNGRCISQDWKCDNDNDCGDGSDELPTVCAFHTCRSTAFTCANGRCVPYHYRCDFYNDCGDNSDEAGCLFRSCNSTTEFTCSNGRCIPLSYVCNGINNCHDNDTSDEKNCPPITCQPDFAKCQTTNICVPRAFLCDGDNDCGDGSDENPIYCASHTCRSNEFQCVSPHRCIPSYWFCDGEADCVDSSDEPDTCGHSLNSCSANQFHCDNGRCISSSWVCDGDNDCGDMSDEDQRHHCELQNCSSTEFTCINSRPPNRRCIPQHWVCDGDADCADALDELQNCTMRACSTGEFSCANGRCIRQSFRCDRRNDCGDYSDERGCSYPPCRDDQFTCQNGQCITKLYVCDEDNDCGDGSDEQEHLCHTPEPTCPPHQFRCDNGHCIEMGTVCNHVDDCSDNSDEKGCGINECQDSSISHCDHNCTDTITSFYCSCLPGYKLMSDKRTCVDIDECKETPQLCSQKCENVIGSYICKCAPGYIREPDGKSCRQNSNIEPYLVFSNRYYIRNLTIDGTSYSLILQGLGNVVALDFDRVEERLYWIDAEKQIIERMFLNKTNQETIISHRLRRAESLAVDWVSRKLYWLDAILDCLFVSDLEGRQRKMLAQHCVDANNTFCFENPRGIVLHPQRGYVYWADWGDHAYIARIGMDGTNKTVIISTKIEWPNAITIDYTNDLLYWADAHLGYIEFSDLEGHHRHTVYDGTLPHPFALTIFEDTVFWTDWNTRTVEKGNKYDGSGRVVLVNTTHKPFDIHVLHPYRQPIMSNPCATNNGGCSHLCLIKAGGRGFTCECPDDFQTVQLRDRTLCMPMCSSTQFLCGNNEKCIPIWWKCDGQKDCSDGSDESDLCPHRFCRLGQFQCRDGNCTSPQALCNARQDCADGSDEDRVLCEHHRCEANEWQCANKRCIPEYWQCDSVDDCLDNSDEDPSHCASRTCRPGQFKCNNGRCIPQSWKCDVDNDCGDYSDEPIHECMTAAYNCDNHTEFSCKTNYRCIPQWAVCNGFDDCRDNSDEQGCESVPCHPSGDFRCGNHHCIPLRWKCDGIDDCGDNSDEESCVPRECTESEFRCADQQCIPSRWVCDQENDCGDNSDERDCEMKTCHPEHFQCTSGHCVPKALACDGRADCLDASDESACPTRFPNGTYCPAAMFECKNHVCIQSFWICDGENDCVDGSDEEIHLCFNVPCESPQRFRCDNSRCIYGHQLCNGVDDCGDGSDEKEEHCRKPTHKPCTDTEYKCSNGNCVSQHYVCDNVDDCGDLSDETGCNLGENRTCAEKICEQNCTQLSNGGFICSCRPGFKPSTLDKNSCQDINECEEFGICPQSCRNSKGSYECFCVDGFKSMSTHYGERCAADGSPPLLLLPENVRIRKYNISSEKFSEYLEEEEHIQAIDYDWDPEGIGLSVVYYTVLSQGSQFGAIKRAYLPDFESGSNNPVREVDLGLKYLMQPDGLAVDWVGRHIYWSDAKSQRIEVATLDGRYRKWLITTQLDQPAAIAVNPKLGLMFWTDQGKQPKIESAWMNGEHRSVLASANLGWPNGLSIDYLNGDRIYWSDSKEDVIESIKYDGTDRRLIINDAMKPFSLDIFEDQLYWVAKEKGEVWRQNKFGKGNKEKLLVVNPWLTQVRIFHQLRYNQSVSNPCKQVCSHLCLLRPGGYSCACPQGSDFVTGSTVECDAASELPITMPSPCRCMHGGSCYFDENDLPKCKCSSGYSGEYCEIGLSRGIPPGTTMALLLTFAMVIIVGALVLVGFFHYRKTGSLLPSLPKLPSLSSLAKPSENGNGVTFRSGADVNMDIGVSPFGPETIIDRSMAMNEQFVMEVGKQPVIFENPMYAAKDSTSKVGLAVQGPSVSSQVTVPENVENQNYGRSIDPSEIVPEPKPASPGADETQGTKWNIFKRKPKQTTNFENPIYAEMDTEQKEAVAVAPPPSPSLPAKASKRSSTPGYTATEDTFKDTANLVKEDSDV

Binder	Accumulation 3 hours after i.p. injection (%): Urine (Ngal-enterochelin-55Fe3+ complex, C57BL/6 mice) [%]
NGAL mutant A1 (ligand) QDSTSDLIPAPPLSSVPLQQNFQDNQFQGKWYVVGLAGNAILREDKDPQKMYATIYELKEDKSYNVTSVLFRKKKCDYWIRTFVPGCQPGEFTLGNIKSYPGLTSYLVRVVSTNYNQHAMVFFKKVSQNREYFKITLYGRTKELTSELKENFIRFSKSLGLPENHIVFPVPIDQCIDG	0.55
NGAL mutant A3 (ligand) QDSTSDLIPAPPLSKVPLQQNFQDNQFQGKWYVVGLAGNAILQEDKDPQKMYATIYELKEDKSYNVTSVLFRKKKCDYWIRTFVPGCQPGEFTLGNIKSYPGLTSYLVRVVSTNYNQHAMVFFKKVSQNREYFKITLYGRTKELTSELKENFIRFSKSLGLPENHIVFPVPIDQCIDG	0.23
NGAL mutant B1 (ligand) QDSTSDLIPAPPLSKVPLQQNFQDNQFQGKWYVVGLAGNAILREDKDPQKMYATIYELKEDKSYNVTSVLFRKKKCDYWIRTFVPGCQPGEFTLGNIQSYPGLTSYLVRVVSTNYNQFAMVFFKKVSQNREYFKITLYGRTKELTSELKENFIRFSKSLGLPENNIVFPVPIDQCIDG	0.22
NGAL mutant C5 (ligand) QDSTSDLIPAPPLSKVPLQQNFQDNQFQGKWYVVGLAGNAILREDKDPQKMYATIYELKEDKSYNVTSVLFQKKKCDYWIRTFVPGCQPGEFTLGNIKSYPGLTSYLVRVVSTNYNQHAMVFFKKVSQNREYFKITLYGRTKELTSELKENFIRFSQSLGLPENHIVFPVPIDQCIDG	0.26
NGAL mutant F2 (ligand) QDSTSDLIPAPPLSKVPLQQNFQDNQFQGKWYVVGLAGNAILREDEDPQKMYATIYELQEDKSYNVTSVLFRKKKCDYWIRTFVPGCQPGEFTLGNIKSYPGLTSYLVRVVSTNYNQHAMVFFKKVSQNREYFKITLYGRTKELTSELKENFIRFSKSLGLPENHIVFPVPIDQCIDG	0.11
NGAL mutant F5 (ligand) QDSTSDLIPAPPLSSVPLQQNFQDNQFQGKWYVVGLAGNAILREDEDPQKMYATIYELKEDKSYNVTSVLFRKKKCDYWIRTFVPGCQPGEFTLGNIKSYPGLTSYLVRVVSTNYNQHAMVFFKKVSQNREYFKITLYGRTKELTSELQENFIRFSKSLGLPENNIVFPVPIDQCIDG	1.23
NGAL mutant G1 (ligand) QDSTSDLIPAPPLSSVPLQQNFQDNQFQGKWYVVGLAGNAILQEDKDPQKMYATIYELKEDKSYNVTSVLFRKKKCDYWIRTFVPGCQPGEFTLGNIKSYPGLTSYLVRVVSTNYNQHAMVFFKKVSQNREYFKITLYGRTKELTSELQENFIRFSKSLGLPENHIVFPVPIDQCIDG	0.28
NGAL mutant G3 (ligand) QDSTSDLIPAPPLSKVPLQQNFQDNQFQGKWYVVGLAGNAILREDKDPQKMYATIYELKEDKSYNVTSVLFRKKKCDYWIRTFVPGCQPGEFTLGNIKSYPGLTSYLVRVVSTNYNQHAMVFFKKVSQNREYFKITLYGRTKELTSELKENFIRFSQSLGLPENHIVFPVPIDQCIDG	0.17
NGAL mutant F4 (ligand) QDSTSDLIPAPPLSSVPLQQNFQDNQFQGKWYVVGLAGNAILREDEDPQKMYATIYELKEDKSYNVTSVLFRKKKCDYWIRTFVPGCQPGEFTLGNIKSYPGLTSYLVRVVSTNYNQHAMVFFKKVSQNREYFKITLYGRTKELTSELQENFIRFSKSLGLPENHIVFPVPIDQCIDG	1.65
NGAL mutant F1 (ligand) QDSTSDLIPAPPLSSVPLQQNFQDNQFQGKWYVVGLAGNAILREDEDPQKMYATIYELQEDKSYNVTSVLFRKKKCDYWIRTFVPGCQPGEFTLGNIKSYPGLTSYLVRVVSTNYNQHAMVFFKKVSQNREYFKITLYGRTKELTSELKENFIRFSKSLGLPENHIVFPVPIDQCIDG	0.51
NGAL mutant D2 (ligand) QDSTSDLIPAPPLSKVPLQQNFQDNQFQGKWYVVGLAGNAILREDKDPQKMYATIYELKEDGSYNVTSVLFRKKKCDYWIRTFVPGCQPGEFTLGNIKSYPGLTSYLVRVVSTNYNQHAMVFFKKVSQNREYFKITLYGRTKELTSELKENFIRFSKSLGLPENHIVFPVPIDQCIDG	0.11
NGAL mutant D1 (ligand) QDSTSDLIPAPPLSKVPLQQNFQDNQFQGKWYVVGLAGNAILREDKDPQKMYATIYELKEDKSYNVTSVLFRDDGCDYWIRTFVPGCQPGEFTLGNIKSYPGLTSYLVRVVSTNYNQHAMVFFKKVSQNREYFKITLYGRTKELTSELKENFIRFSKSLGLPENHIVFPVPIDQCIDG	0.1
NGAL mutant A2 (ligand) QDSTSDLIPAPPLSSVPLQQNFQDNQFQGKWYVVGLAGNAILREDKDPQKMYATIYELKEDKSYNVTSVLFRKKKCDYWIRTFVPGCQPGEFTLGNIKSYPGLTSYLVRVVSTNYNQHAMVFFKKVSQNREYFKITLYGQTQELTSELKENFIRFSKSLGLPENHIVFPVPIDQCIDG	0.18

Second part, the binder after the results:

Accumulation 3 hours after i.p. injection (%): Urine (Ngal-enterochelin-55Fe3+ complex, C57BL/6 mice) [%]	Binder
9.6	NGAL mutant K2 (ligand) QDSTSDLIPAPPLSSVPLQQNFQDNQFQGKWYVVGLAGNAILREDKDPQKMYATIYELKEDKSYNVTSVLFRDDGCDYWIRTFVPGCQPGEFTLGNIQSYPGLTSYLVRVVSTNYNQFAMVFFKKVSQNQEYFKITLYGRTKELTSELQENFIRFSKSLGLPENNIVFPVPIDQCIDG
6	NGAL mutant I1 (ligand) QDSTSDLIPAPPLSSVPLQQNFQDNQFQGKWYVVGLAGNAILREDKDPQKMYATIYELKEDKSYNVTSVLFRDDGCDYWIRTFVPGCQPGEFTLGNIKSYPGLTSYLVRVVSTNYNQHAMVFFKKVSQNQEYFKITLYGRTKELTSELKENFIRFSKSLGLPENHIVFPVPIDQCIDG
1.9	NGAL mutant K1 (ligand) QDSTSDLIPAPPLSSVPLQQNFQDNQFQGKWYVVGLAGNAILREDEDPQKMYATIYELQEDKSYNVTSVLFRKKKCDYWIRTFVPGCQPGEFTLGNIQSYPGLTSYLVRVVSTNYNQFAMVFFKKVSQNQEYFKITLYGRTKELTSELQENFIRFSKSLGLPENNIVFPVPIDQCIDG
6.9	NGAL mutant I3 (ligand) QDSTSDLIPAPPLSKVPLQQNFQDNQFQGKWYVVGLAGNAILREDKDPQKMYATIYELKEDGSYNVTSVLFRDDGCDYWIRTFVPGCQPGEFTLGNIQSYPGLTSYLVRVVSTNYNQHAMVFFKKVSQNREYFKITLYGRTKELTSELKENFIRFSKSLGLPENHIVFPVPIDQCIDG
0.27	NGAL mutant H2 (ligand) QDSTSDLIPAPPLSSVPLQQNFQDNQFQGKWYVVGLAGNAILREDKDPQKMYATIYELKEDKSYNVTSVLFRKKKCDYWIRTFVPGCQPGEFTLGNIQSYPGLTSYLVRVVSTNYNQFAMVFFKKVSQNQEYFKITLYGRTKELTSELQENFIRFSKSLGLPENNIVFPVPIDQCIDG
0.24	NGAL mutant H5 (ligand) QDSTSDLIPAPPLSSVPLQQNFQDNQFQGKWYVVGLAGNAILREDKDPQKMYATIYELKEDKSYNVTSVLFRKKKCDYWIRTFVPGCQPGEFTLGNIQSYPGLTSYLVRVVSTNYNQHAMVFFKKVSQNREYFKITLYGRTKELTSELKENFIRFSKSLGLPENNIVFPVPIDQCIDG
2.9	NGAL mutant K5 (ligand) QDSTSDLIPAPPLSSVPLQQNFQDNQFQGKWYVVGLAGNAILREDEDPQKMYATIYELKEDKSYNVTSVLFRKKKCDYWIRTFVPGCQPGEFTLGNIQSYPGLTSYLVRVVSTNYNQFAMVFFKKVSQNQEYFKITLYGRTKELTSELQENFIRFSKSLGLPENNIVFPVPIDQCIDG
0.05	NGAL mutant I5 (ligand) QDSTSDLIPAPPLSSVPLQQNFQDNQFQGKWYVVGLAGNAILREDKDPQKMYATIYELKEDGSYNVTSVLFRDDGCDYWIRTFVPGCQPGEFTLGNIKSYPGLTSYLVRVVSTNYNQHAMVFFKKVSQNQEYFKITLYGRTKELTSELKENFIRFSKSLGLPENHIVFPVPIDQCIDG
0.37	NGAL mutant H1 (ligand) QDSTSDLIPAPPLSKVPLQQNFQDNQFQGKWYVVGLAGNAILREDKDPQKMYATIYELKEDKSYNVTSVLFRKKKCDYWIRTFVPGCQPGEFTLGNIKSYPGLTSYLVRVVSTNYNQHAMVFFKKVSQNREYFKITLYGRTKELTSELKENFIRFSKSLGLPENNIVFPVPIDQCIDG
0.3	NGAL mutant H3 (ligand) QDSTSDLIPAPPLSKVPLQQNFQDNQFQGKWYVVGLAGNAILREDKDPQKMYATIYELKEDKSYNVTSVLFRKKKCDYWIRTFVPGCQPGEFTLGNIKSYPGLTSYLVRVVSTNYNQFAMVFFKKVSQNREYFKITLYGRTKELTSELQENFIRFSKSLGLPENNIVFPVPIDQCIDG

From patent publication US20230414709A1 (TRUSTEES OF COLUMBIA UNIVERSITY IN THE CITY OF NEW YORK, published 2023)
